Laboratory results reported in US12590147 (OBLIQUE THERAPEUTICS, dated 2026).

Molecular target: T1, human TRPV1 (transient receptor potential vanilloid type 1) (human, UniProt Q8NER1 1-839)
T1 construct: ion channel expressed from a tetracycline regulated system (T-REx) in adherent CHO cells, induced with doxycycline; also called hTRPV1
Test: FACS on CHO cells with induced hTRPV1 expression
Protocol: For monoclonal antibody preparations, CHO-TRPV1 cells were incubated with 50 μl antibody preparation (serum, hybridoma supernatant or purified monoclonal antibody) for 30 min at 4° C., followed by 30 min incubation at 4° C. with 50 µl secondary antibody (anti-mouse IgG, conjugated to fluorescent probe). The negative control was secondary antibody only (anti-mouse IgG at […] in the 50 µL sample). Binding was assessed by measurement of fluorescence signal from cells and reported as mean fluorescence intensity (MFI). CHO-TRPV1 cells are adherent Chinese hamster ovary (CHO) cells with a tetracycline regulated expression system (T-REx) of hTRPV1 (human TRPV1) as described elsewhere. Doxycycline was used to induce expression of TRPV1 (denoted +TRPV1). Non-induced cells are denoted –TRPV1.
Three examples of mouse monoclonal antibodies against human TRPV1, OT-Ab1, OT-Ab2 and OT-Ab3, were produced using the hybridoma technology. Specificity of binding to hTRPV1 was determined using FACS, employing a CHO cell line with inducible hTRPV1 expression. OT-Ab1, OT-Ab2 and OT-Ab3 bound to hTRPV1-expressing cells but not to non-hTRPV1-expressing cells indicating strongly specific binding to hTRPV1 (FIG. 5).

T1 sequence (Q8NER1 whole entry): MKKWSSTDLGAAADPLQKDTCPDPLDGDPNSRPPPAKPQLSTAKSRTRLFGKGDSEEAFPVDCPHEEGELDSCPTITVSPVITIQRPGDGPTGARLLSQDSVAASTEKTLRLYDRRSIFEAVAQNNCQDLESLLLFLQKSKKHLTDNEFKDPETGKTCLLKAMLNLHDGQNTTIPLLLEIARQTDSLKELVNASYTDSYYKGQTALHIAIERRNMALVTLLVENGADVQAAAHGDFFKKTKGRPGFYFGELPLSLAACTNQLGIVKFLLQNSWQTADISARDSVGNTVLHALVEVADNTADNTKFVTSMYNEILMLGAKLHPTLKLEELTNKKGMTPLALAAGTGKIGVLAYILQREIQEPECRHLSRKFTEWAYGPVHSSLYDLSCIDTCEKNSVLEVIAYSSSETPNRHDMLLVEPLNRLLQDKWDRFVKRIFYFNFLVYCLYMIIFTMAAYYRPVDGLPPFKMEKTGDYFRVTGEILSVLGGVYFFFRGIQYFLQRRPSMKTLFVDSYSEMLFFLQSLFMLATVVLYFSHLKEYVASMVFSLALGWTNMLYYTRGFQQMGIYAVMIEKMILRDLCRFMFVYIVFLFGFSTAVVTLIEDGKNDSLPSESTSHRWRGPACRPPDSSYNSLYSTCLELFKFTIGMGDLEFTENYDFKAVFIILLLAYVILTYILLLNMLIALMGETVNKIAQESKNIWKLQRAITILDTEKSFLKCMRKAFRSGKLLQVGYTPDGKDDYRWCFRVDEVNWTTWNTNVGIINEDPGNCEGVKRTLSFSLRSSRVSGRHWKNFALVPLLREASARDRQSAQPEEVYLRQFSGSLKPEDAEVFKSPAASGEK

Binder | binding result
OT-Ab2 (antibody, IgG1, V domains shown, mouse monoclonal, IgG1/kappa) VH: EVKLLESGGGLVQPGGSLKLSCAASGFDFRRYWMSWVRQAPGKGLEWIGEINPDSSTINYTPSLKDEFIISRDNAKNTLYLQMSKVRSEDTVLYYCSRGGDYWGQGTSVTVSS VL: not shown | binds
OT-Ab3 (antibody, IgG1, V domains shown, mouse monoclonal, IgG1/kappa) VH: EVNLLESGGGLVQPGGSLKLSCAASGFDFRRYWMSWVRQAPGKGLEWIGEINPDSSTINYTPSLKDEFIISRDNAKNTLYLQMSKVRSEDTVLYYCSRGGDYWGQGTSVTVSS VL: not shown | binds
OT-Ab1 (antibody, IgG2b, V domains shown, mouse monoclonal, IgG2b/kappa) VH: EVQLQQSGAELVKPGASVKLSCTASGFNIKDTYIHWVKQRPEQGLEWIGRIDPANGNTRYDPKFQGKATITADTSSNTAYLQLSSLTSEDTAVYYCAKVSGDRRFYWYFDVWGAGTTVTVSS VL: not shown | binds

Molecular target: T1, human TRPV1 (transient receptor …)
Test: FACS on CHO TRPV1 cells, purified antibody
Protocol: For monoclonal antibody preparations for FACS analysis, CHO TRPV1 cells, HEK 293 cells or CHO S cells were incubated with 50 μl antibody preparation (serum, hybridoma supernatant or purified monoclonal antibody or control) for 40 min at room temperature, followed by 30 min incubation at room temperature with 100 μl secondary antibody (anti-mouse IgG, conjugated to fluorescent probe). Binding was assessed by measurement of fluorescence signal from cells and reported as mean fluorescence intensity (MFI). CHO TRPV1 cells are adherent Chinese hamster ovary (CHO) cells with a tetracycline regulated expression system (T-REx) of hTRPV1 (human TRPV1) as described elsewhere. Doxycycline was used to induce expression of TRPV1. CHO S cells and HEK 293 cells were used as negative control cells. CHO S cells are a high-density suspension-adapted cell type used as a tool for high level expression of recombinant protein, with little or no basal expression of TRPV1. […]
In the study described in the present example, 16 mouse monoclonal antibodies against human TRPV1, 32C8-1, 33C9-1, 34C11-1, 40B10-1, 41B5-1, 43D6-1, 44E8-1, 46B7-1, 46D9-1, 12C9-1, 12G6-1, 15D8-1, 16F1-1, 17E11-1, 17E9-1, 18E10-1, were produced using the hybridoma technology. Specificity of binding to hTRPV1 was determined using FACS, employing a CHO cell line with inducible hTRPV1 expression. […]

Binder | binding result
12C9-1 (antibody, IgG2b, V domains shown, mouse monoclonal, IgG2b/kappa) VH: EVQLQQSGPELVKPGTSVKISCKASGYTFTGYYMNWVKQSHGKSLEWIGDINPNNGGTDYNRKFKGKATLTVDKSSSTAYMEVRSLTSEDSAVYYCAKDFAVWGTGTTVTVSS VL: not shown | binds
12G6-1 (antibody, IgG1, V domains shown, mouse monoclonal, IgG1/kappa) VH: EVQLVESGGDLVNPGGSLKLSCAASGFTISNYGMSWVRQTPDKRLEWVAIIIRDGGYTYYPDSVKGRFTISRDSAKNTLYLQMSSLKSEDTAMYYCARHEYYFDFWGQGTTLTVSS VL: DVLMTQTPLSLPVSLGDQASISCRSSQTILHSDGNTYLEWYLQKPGQSPKLLIYKVSNRFSGVPDRFSGSGSGTDFTLKISRVEAEDLGVYYCSQGSHFPPTFGGGTKVEIK | binds

Molecular target: T1, human TRPV1 (transient receptor …)
Test: cell-based or functional assay

Binder | IC50 of inhibition of TRPV1-mediated capsaicin-induced Ca2+ uptake (FLIPR) [µM]
16F1-1 (antibody, IgG2a, V domains shown) VH: EVQLVESGGGLVQPKGSLKLSCAASGFTFNTYAMHWVRQAPGKGLEWVARIRSKSSNYATYYADSVKDRFTISRDDSQSMVYLQMNNLKTEDTAMYYCVRKGDGYDGWFAYWGQGTLVTVSA VL: DIQMTQSPASLSASVGETVTITCRPSGNIHNYLVWYQQKQGKSPQVLVYNSKTLADGVPSRFSGSGSGTQYSLKINSLQPEDFGTYYCQHFWSTPLTFGAGTKLELK | ~0.215
15D8-1 (antibody, V domains shown) VH: DVQLVESGGGLVQPGGSRKLSCAASGFTFSSFGMHWVRQAPEKGLEWVAYISSGSSTIYYADTVKGRFTISRDNPKNTLFLQMTSLRSEDTAMYYCARRGNAMDYWGQGTSVTVSS VL: NIMMTQSPSSLAVSAGEKVTMSCKSSQSVLYSSNQKNYLAWYQQKPGQSPKLLIYWASTRESGVPDRFTGSGSGTDFTLTISSVQAEDLAVYYCHQYFSSWTFGGGTKLEIK | ~0.07
17E11-1 (antibody, IgG1, V domains shown) VH: EVQLLQSVAELVRPGASVKLSCTASGFNIKNTFIHWLKQRPEQGLEWIGKIDPANGNIRCAPKFQGKATITADTSSNTAYLQLSSLTSGDTAIYYCGRGTMLVGHFYWYFDVWGTGTTVTVSS VL: DIVMSQSPSSLAVSVGEKITMSCKSSQSLLYSSNQKNYLAWYQQKPGQSPKLLIYWASTRESGVPDRFSGSGSGTDFTLTISSVKTEDLAIFYCQQYYYYPPTFGAGTKLELR | ~0.23
17E9-1 (antibody, IgG2b, V domains shown) VH: EVQLLQSVAELVRPGASVKLSCTASGFNIKNTFIHWLKQRPEQGLEWIGKIDPANGNIRCAPKFQGKATITADTSSNTAYLQLSSLTSGDTAIYYCGRGTMLVGHFYWYFDVWGTGTTVTVSS VL: DIVMSQSPSSLAVSVGEKITMSCKSSQSLLYSSNQKNYLAWYQQKPGQSPKLLIYWASTRESGVPDRFSGSGSGTDFTLTISSVKTEDLAIFYCQQYYYYPPTFGAGTKLELR | ~0.4
41B5-1 (antibody, V domains shown) VH: DVQLQESGPGLVKPSQSLSLTCTVTDYSLTSDYAWNWIRQFPGNKLEWMGYITYSGYTNFNPSLRSRISITRDTSKTQFFLQLNSVTAEDTATYYCVRSTTYFDYWGQGTTLTVSS VL: DVLMTQTPLSLPVSLGDQASISCRSSQSIVHSDGNTYLEWYLQKPGQSPKLLIYKVSNRFSGVPDRFSGSGSGTDFTLKINRVEAEDLGIYYCFQGSHVPPTFGGGTKLEIK | ~0.17
46B7-1 (antibody, V domains shown) VH: DVQLQESGPGLVKPSQSLSLTCTVTDYSLTSDYAWNWIRQFPGNKLEWMGYITYSGYTNYNPSLKSRVSITRDTSKTQFFLQLNSVTTEDTATYYCARSTAYFDYWGQGTTLTVSS VL: DVLMTQTPLSLPVSLGDQASISCRSSQSVIHSDGNTYLEWYLQKPGQSPKLLIYKVSNRFSGVPDRFSGSGSGTDFTLKISRVEAEDLGVYYCFQGSHVPPTFGGGTKLEIK | ~0.2
